Reference: the Human Domainome abundance scans (Beltran et al. 2025)
± gives the uncertainty stated by the source.

B1: Proto-oncogene vav, residues 782 to 842; numbered along this chain, P15498 (parent)
chain: KYFGTAKARYDFCARDRSELSLKEGDIIKILNKKGQQGWWRGEIYGRVGWFPANYVEEDYS

Variants of: B1
Experiment: abundance fitness (aPCA) (normalised: wild type 0, dead -1); higher = more abundant; growth selection in yeast, the domain comes from the species named
Conditions: Homo sapiens

Question: Which abundance fitness does the source give for KYFGTAKARYDFCARDRSELSLKEGDIIKILNKKGQQGWWRGEIYGRVGWFPANYVETDYS [E58T] here?
Answer: -0.129 ± 0.093

Question: For KYFGTAKARYDFCARDRSELSLKEGDIIKILNKKGQQGWWRGEIYGRVGWFPANYVEVDYS [E58V], which abundance fitness is on record?
Answer: -0.117 ± 0.089

Question: Which abundance fitness does the source give for KYFGTAKARYDFCARDRSELSLKEGDIIKILNKKGQQGWWRGEIYGRVGWFPANYVEWDYS [E58W] here?
Answer: -0.364 ± 0.1

Question: With KYFGTAKARYDFCARDRSELSLKEGDIIKILNKKGQQGWWRGEIYGRVGWFPANYVEYDYS [E58Y] as the variant, how does the abundance fitness read?
Answer: -0.065 ± 0.14

Question: Which abundance fitness does the source give for KYFGTAKARYDFCARDRSELSLKEGDIIKILNKKGQQGWWRGEIYGRVGWFPANYVEEAYS [D59A] here?
Answer: -0.188 ± 0.082

Question: With KYFGTAKARYDFCARDRSELSLKEGDIIKILNKKGQQGWWRGEIYGRVGWFPANYVEECYS [D59C] as the variant, how does the abundance fitness read?
Answer: -0.125 ± 0.11

Question: For KYFGTAKARYDFCARDRSELSLKEGDIIKILNKKGQQGWWRGEIYGRVGWFPANYVEEEYS [D59E], which abundance fitness is on record?
Answer: -0.038 ± 0.1

Question: With KYFGTAKARYDFCARDRSELSLKEGDIIKILNKKGQQGWWRGEIYGRVGWFPANYVEEFYS [D59F] as the variant, how does the abundance fitness read?
Answer: -0.015 ± 0.11

Question: With KYFGTAKARYDFCARDRSELSLKEGDIIKILNKKGQQGWWRGEIYGRVGWFPANYVEEGYS [D59G] as the variant, how does the abundance fitness read?
Answer: -0.097 ± 0.088

Question: For KYFGTAKARYDFCARDRSELSLKEGDIIKILNKKGQQGWWRGEIYGRVGWFPANYVEEHYS [D59H], which abundance fitness is on record?
Answer: -0.109 ± 0.11

Question: For KYFGTAKARYDFCARDRSELSLKEGDIIKILNKKGQQGWWRGEIYGRVGWFPANYVEELYS [D59L], which abundance fitness is on record?
Answer: -0.138 ± 0.06

Question: With KYFGTAKARYDFCARDRSELSLKEGDIIKILNKKGQQGWWRGEIYGRVGWFPANYVEEMYS [D59M] as the variant, how does the abundance fitness read?
Answer: -0.027 ± 0.12

Question: With KYFGTAKARYDFCARDRSELSLKEGDIIKILNKKGQQGWWRGEIYGRVGWFPANYVEENYS [D59N] as the variant, how does the abundance fitness read?
Answer: 0.052 ± 0.1

Question: With KYFGTAKARYDFCARDRSELSLKEGDIIKILNKKGQQGWWRGEIYGRVGWFPANYVEEPYS [D59P] as the variant, how does the abundance fitness read?
Answer: -0.371 ± 0.11

Question: For KYFGTAKARYDFCARDRSELSLKEGDIIKILNKKGQQGWWRGEIYGRVGWFPANYVEEQYS [D59Q], which abundance fitness is on record?
Answer: 0.01 ± 0.11

Question: For KYFGTAKARYDFCARDRSELSLKEGDIIKILNKKGQQGWWRGEIYGRVGWFPANYVEERYS [D59R], which abundance fitness is on record?
Answer: -0.285 ± 0.081

Question: With KYFGTAKARYDFCARDRSELSLKEGDIIKILNKKGQQGWWRGEIYGRVGWFPANYVEETYS [D59T] as the variant, how does the abundance fitness read?
Answer: 0.008 ± 0.082

Question: Which abundance fitness does the source give for KYFGTAKARYDFCARDRSELSLKEGDIIKILNKKGQQGWWRGEIYGRVGWFPANYVEEVYS [D59V] here?
Answer: -0.009 ± 0.073

Question: Which abundance fitness does the source give for KYFGTAKARYDFCARDRSELSLKEGDIIKILNKKGQQGWWRGEIYGRVGWFPANYVEEWYS [D59W] here?
Answer: 0.048 ± 0.15

Question: For KYFGTAKARYDFCARDRSELSLKEGDIIKILNKKGQQGWWRGEIYGRVGWFPANYVEEYYS [D59Y], which abundance fitness is on record?
Answer: -0.244 ± 0.1

Question: Which abundance fitness does the source give for KYFGTAKARYDFCARDRSELSLKEGDIIKILNKKGQQGWWRGEIYGRVGWFPANYVEEDAS [Y60A] here?
Answer: -0.079 ± 0.088

Question: Which abundance fitness does the source give for KYFGTAKARYDFCARDRSELSLKEGDIIKILNKKGQQGWWRGEIYGRVGWFPANYVEEDCS [Y60C] here?
Answer: -0.119 ± 0.14

Question: For KYFGTAKARYDFCARDRSELSLKEGDIIKILNKKGQQGWWRGEIYGRVGWFPANYVEEDDS [Y60D], which abundance fitness is on record?
Answer: 0.106 ± 0.18

Question: With KYFGTAKARYDFCARDRSELSLKEGDIIKILNKKGQQGWWRGEIYGRVGWFPANYVEEDES [Y60E] as the variant, how does the abundance fitness read?
Answer: 0.005 ± 0.13

Question: For KYFGTAKARYDFCARDRSELSLKEGDIIKILNKKGQQGWWRGEIYGRVGWFPANYVEEDFS [Y60F], which abundance fitness is on record?
Answer: 0.017 ± 0.15

Question: With KYFGTAKARYDFCARDRSELSLKEGDIIKILNKKGQQGWWRGEIYGRVGWFPANYVEEDGS [Y60G] as the variant, how does the abundance fitness read?
Answer: -0.039 ± 0.085

Question: For KYFGTAKARYDFCARDRSELSLKEGDIIKILNKKGQQGWWRGEIYGRVGWFPANYVEEDHS [Y60H], which abundance fitness is on record?
Answer: 0.027 ± 0.17

Question: For KYFGTAKARYDFCARDRSELSLKEGDIIKILNKKGQQGWWRGEIYGRVGWFPANYVEEDIS [Y60I], which abundance fitness is on record?
Answer: -0.024 ± 0.12

Question: With KYFGTAKARYDFCARDRSELSLKEGDIIKILNKKGQQGWWRGEIYGRVGWFPANYVEEDKS [Y60K] as the variant, how does the abundance fitness read?
Answer: -0.122 ± 0.19

Question: Which abundance fitness does the source give for KYFGTAKARYDFCARDRSELSLKEGDIIKILNKKGQQGWWRGEIYGRVGWFPANYVEEDLS [Y60L] here?
Answer: 0.062 ± 0.057

Question: With KYFGTAKARYDFCARDRSELSLKEGDIIKILNKKGQQGWWRGEIYGRVGWFPANYVEEDMS [Y60M] as the variant, how does the abundance fitness read?
Answer: 0.009 ± 0.1

Question: For KYFGTAKARYDFCARDRSELSLKEGDIIKILNKKGQQGWWRGEIYGRVGWFPANYVEEDPS [Y60P], which abundance fitness is on record?
Answer: -0.183 ± 0.11

Question: Which abundance fitness does the source give for KYFGTAKARYDFCARDRSELSLKEGDIIKILNKKGQQGWWRGEIYGRVGWFPANYVEEDQS [Y60Q] here?
Answer: -0.097 ± 0.12

Question: For KYFGTAKARYDFCARDRSELSLKEGDIIKILNKKGQQGWWRGEIYGRVGWFPANYVEEDRS [Y60R], which abundance fitness is on record?
Answer: -0.005 ± 0.073

Question: Which abundance fitness does the source give for KYFGTAKARYDFCARDRSELSLKEGDIIKILNKKGQQGWWRGEIYGRVGWFPANYVEEDSS [Y60S] here?
Answer: 0.016 ± 0.071

Question: For KYFGTAKARYDFCARDRSELSLKEGDIIKILNKKGQQGWWRGEIYGRVGWFPANYVEEDVS [Y60V], which abundance fitness is on record?
Answer: 0.134 ± 0.098

Question: With KYFGTAKARYDFCARDRSELSLKEGDIIKILNKKGQQGWWRGEIYGRVGWFPANYVEEDWS [Y60W] as the variant, how does the abundance fitness read?
Answer: -0.169 ± 0.12

Question: Which abundance fitness does the source give for KYFGTAKARYDFCARDRSELSLKEGDIIKILNKKGQQGWWRGEIYGRVGWFPANYVEEDYA [S61A] here?
Answer: -0.073 ± 0.18

Question: With KYFGTAKARYDFCARDRSELSLKEGDIIKILNKKGQQGWWRGEIYGRVGWFPANYVEEDYC [S61C] as the variant, how does the abundance fitness read?
Answer: 0.071 ± 0.18

Question: For KYFGTAKARYDFCARDRSELSLKEGDIIKILNKKGQQGWWRGEIYGRVGWFPANYVEEDYD [S61D], which abundance fitness is on record?
Answer: -0.208 ± 0.4
